T1: Mb重组蛋白 (recombinant myoglobin) (UniProt P02144)
T1 sequence (looked up): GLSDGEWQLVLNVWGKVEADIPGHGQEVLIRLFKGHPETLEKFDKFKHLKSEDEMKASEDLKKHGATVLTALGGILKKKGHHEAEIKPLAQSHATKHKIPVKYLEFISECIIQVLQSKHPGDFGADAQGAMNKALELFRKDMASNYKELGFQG


How the values were obtained:
[1] = target: T1, Mb重组蛋白 (recombinant myoglobin); test: indirect ELISA; Mb coated 2 ug/mL; hybridoma supernatant 1/50
[2] = target: T1, Mb重组蛋白 (recombinant myoglobin); test: as above; remark: listed apart in the source
[3] = target: T1, Mb重组蛋白 (recombinant myoglobin); test: indirect ELISA; Mb coated 2 ug/mL; hybridoma supernatant 1/100
[4] = target: T1, Mb重组蛋白 (recombinant myoglobin); test: indirect ELISA; Mb coated 2 ug/mL; hybridoma supernatant 1/200
[5] = target: T1, Mb重组蛋白 (recombinant myoglobin); test: indirect ELISA; Mb coated 2 ug/mL; hybridoma supernatant 1/400

OD450 [1] | OD450 [2] | OD450 [3] | OD450 [4] | OD450 [5] | Binder
1.73 OD | 1.69 OD | 1.33 OD | 1.18 OD | 0.857 OD | 鼠单克隆抗体 1E6 (antibody, V domains shown) VH: EVQLQQSGAELVKPGASVKLSCTTSGFNIKDTYIHWVRQRPEQGLEWIGNIDPANGNTKYDPEFQGKATITADTSSNTAYLHLSSLTSEDTAVYYCARVDGSRDFDYWGQGTTLTVSS VL: DIVMTQAAPSVTVTPGESVSISCRSSKSLLYSNGNTYLYWFLQRPGQSPQLLIYRMSNLASGVPDRFSGSGSGTAFTLRISRVEAEDVGVYYCMQHLEYPLTFGGGTKLELK
1.7 OD | 1.69 OD | 1.63 OD | 1.46 OD | 1.27 OD | 鼠单克隆抗体 9B2 (antibody, part only; not given: light chain variable domain, V domains shown, part only) VH: QVQLQQSGAALVRPGTSVKVSCKASGYAFTNYLIEWVKQRPGQGLEWIGVINPGSGGTDYNEKFKGKATLTADKSSSTAYMQLSSLTSDDSAVYFCARSSLYGSSRMDYWGQETSVTVSS

Reference: patent CN113234156A
